Measured values reported in patent US20230151091A1 (NEW YORK UNIVERSITY, published 2023).

Columns and labels:
human MuSK = target: T1, human MuSK (human, UniProt O15146 24-495); assay: Biacore, MuSK on chip (200RU), mAb dilution series
T1 construct: Recombinant protein coated on ELISA plates (R&D Systems cat. 10189-MK) or on the Biacore chip; also called human muscle-specific tyrosine protein kinase; full length human MuSK
T1 sequence: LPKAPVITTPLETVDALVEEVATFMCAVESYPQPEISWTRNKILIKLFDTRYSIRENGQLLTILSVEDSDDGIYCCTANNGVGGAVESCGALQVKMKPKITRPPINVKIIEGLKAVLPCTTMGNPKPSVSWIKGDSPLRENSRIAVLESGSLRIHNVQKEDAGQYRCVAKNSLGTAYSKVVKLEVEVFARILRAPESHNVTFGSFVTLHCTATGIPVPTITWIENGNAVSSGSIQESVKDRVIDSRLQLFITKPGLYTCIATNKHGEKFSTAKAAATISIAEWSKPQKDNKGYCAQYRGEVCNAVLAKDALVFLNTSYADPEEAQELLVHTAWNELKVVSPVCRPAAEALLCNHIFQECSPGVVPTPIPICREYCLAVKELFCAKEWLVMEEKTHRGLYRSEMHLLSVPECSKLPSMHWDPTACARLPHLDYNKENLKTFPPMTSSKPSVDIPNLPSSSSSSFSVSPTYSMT
From the text: (§1) For affinity determination, a CMS chip was coated with either human or mouse MuSK (200RU) and a dilution series of the antibodies (mAbs and Fabs) was applied in order to be able to calculate the affinity.

mouse MuSK [1] = target: T2, mouse MuSK (mouse, UniProt Q61006 22-494, limits assumed); assay: Biacore, MuSK on chip (200RU), mAb dilution series
T2 construct: Coated on ELISA plates or on the Biacore chip; also called full length mouse MuSK; mouse MuSK (in house produced in HEK293 cells)
T2 sequence (looked up): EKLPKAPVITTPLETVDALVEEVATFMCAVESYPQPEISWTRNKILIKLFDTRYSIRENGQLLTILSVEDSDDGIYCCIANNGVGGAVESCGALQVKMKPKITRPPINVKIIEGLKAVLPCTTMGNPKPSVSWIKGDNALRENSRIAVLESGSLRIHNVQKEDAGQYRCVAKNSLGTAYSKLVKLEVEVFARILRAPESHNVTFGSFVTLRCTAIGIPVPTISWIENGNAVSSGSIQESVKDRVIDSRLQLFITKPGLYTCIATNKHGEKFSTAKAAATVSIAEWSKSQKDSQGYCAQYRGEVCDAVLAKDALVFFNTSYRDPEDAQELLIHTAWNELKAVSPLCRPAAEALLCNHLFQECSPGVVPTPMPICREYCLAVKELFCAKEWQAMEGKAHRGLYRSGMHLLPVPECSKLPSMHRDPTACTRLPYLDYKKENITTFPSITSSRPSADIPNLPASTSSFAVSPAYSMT
From the text: as §1

cynomolgus monkey MuSK = cynomolgus monkey MuSK (cynomolgus monkey, UniProt A0A2K5USF6 24-487); assay: Biacore, MuSK on chip, association pH 7.4, dissociation pH 5.5
cynomolgus monkey MuSK, sequence (A0A2K5USF6 entry or part of it): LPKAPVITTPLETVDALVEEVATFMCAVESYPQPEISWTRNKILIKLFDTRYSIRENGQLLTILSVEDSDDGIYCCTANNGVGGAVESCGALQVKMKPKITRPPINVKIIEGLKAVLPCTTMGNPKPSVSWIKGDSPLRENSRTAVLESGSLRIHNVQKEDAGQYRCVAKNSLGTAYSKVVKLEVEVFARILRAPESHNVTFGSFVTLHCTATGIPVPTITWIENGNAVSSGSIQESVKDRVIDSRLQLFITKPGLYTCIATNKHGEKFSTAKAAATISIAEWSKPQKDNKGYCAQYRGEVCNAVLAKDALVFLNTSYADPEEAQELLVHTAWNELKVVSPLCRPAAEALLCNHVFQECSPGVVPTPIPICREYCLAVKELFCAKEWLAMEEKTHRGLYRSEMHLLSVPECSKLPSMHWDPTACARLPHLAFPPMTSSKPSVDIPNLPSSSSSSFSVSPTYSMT
In short: (§2)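 MuSK was immobilized on the sensor chip at 200 RU, and antibody was injected at 66.7 nM. Association ran at pH 7.4 and dissociation at pH 5.5, and kinetic parameters were calculated from the sensorgrams.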

mouse MuSK [2] = target: T2, mouse MuSK; assay: as above
In short: as §2

rat MuSK [3] = target: T3, rat MuSK (rat, UniProt Q62838 22-494, limits assumed); assay: as above
T3 construct: Coated on Biacore chip (200RU) or ELISA plate
T3 sequence (looked up): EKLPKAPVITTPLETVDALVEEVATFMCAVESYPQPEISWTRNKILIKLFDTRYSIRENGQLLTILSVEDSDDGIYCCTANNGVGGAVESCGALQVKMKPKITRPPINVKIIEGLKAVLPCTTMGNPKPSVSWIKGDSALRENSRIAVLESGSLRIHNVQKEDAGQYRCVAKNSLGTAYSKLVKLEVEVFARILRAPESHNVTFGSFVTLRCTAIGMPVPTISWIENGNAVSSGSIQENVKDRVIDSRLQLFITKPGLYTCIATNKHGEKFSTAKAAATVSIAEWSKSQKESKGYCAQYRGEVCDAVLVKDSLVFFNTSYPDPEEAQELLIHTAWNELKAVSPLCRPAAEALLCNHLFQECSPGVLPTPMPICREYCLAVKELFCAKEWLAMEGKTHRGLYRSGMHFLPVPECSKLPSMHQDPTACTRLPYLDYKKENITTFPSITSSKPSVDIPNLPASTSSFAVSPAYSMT
In short: as §2

mouse MuSK [4] = target: T2, mouse MuSK; assay: Biacore, MuSK on chip (200RU), 66.7 nM mAb, dissociation pH 7.4
In short: (§3)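 Sensor chip coated in parallel with cynomolgus monkey, rat and mouse MuSK. Antibody applied at a single concentration; association and dissociation kinetic parameters calculated from the sensorgrams.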

rat MuSK [5] = target: T3, rat MuSK; assay: as above
In short: as §3

Kd (human MuSK): 0.145 nM
Kd (mouse MuSK [1]): 0.134 nM
R0 (cynomolgus monkey MuSK): 149 RU
koff (cynomolgus monkey MuSK): 0.00317 s⁻¹
kon (cynomolgus monkey MuSK): 740000 M⁻¹ s⁻¹
R0 (mouse MuSK [2]): 194 RU
koff (mouse MuSK [2]): 0.00296 s⁻¹
kon (mouse MuSK [2]): 1.05e+06 M⁻¹ s⁻¹
R0 (rat MuSK [3]): 174 RU
koff (rat MuSK [3]): 0.0062 s⁻¹
kon (rat MuSK [3]): 980000 M⁻¹ s⁻¹
R0 (mouse MuSK [4]): 195 RU
koff (mouse MuSK [4]): 0.00061 s⁻¹
kon (mouse MuSK [4]): 1.13e+06 M⁻¹ s⁻¹
R0 (rat MuSK [5]): 162 RU
koff (rat MuSK [5]): 0.00186 s⁻¹
kon (rat MuSK [5]): 1.14e+06 M⁻¹ s⁻¹
B1: 3B2 (antibody, V domains shown)
VH: ELQLVESGGGLVQPGGSLRLSCAASGFTFDDYGMSWVRQAPGKGLEWVSAIPWNGGSTYYKESVKGRFTISRDNAKKTLYLQMNSLKSEDTAVYYCAKRSGRIAFGALDAWGQGTLVTVSS
VL: QAVVTQEPSLSVSPGGTVTLTCGLSSGSVTSSNYPDWYQQTPGQAPRGLIYSTDSRHSGVPSRFSGSISGNKAALTITGAQSEDEADYYCGLYMYSGSKNYVFGGGTKLTVL
notes: human IgG1 with the LALA mutations (L234A, L235A); produced in HEK293 cells; also called 3B2 mAb; parental 3B2 Ab
